# Reference: US9221867B2, “Method for transporting a compound across the blood-brain barrier” (Angiochem Inc., priority 2003, dated 2015)
# Entries after “also recorded” stand apart in the source; their conditions may differ. Read-outs that look alike come from different tables or passages of the source. Where a SMILES comes first, the peptide text is derived from it.
# How the values were obtained:
# [1] = test system: bovine brain capillary endothelial cells (BBCECs); experiment: Transcytosis of 125I-proteins across BBCEC monolayers (in vitro blood-brain barrier model); conditions: for Transcytosis: across in vitro BBB model; for Ratios Aprotinin/Protein: aprotinin transcytosis divided by that of the named protein
# Experimental: (§1) The model consists of a co-culture of bovine brain capillary endothelial cells and rat glial cells.
# (§2) The in vitro model of BBB was established by using a co-culture of BBCECs and astrocytes. Prior to cell culture, plate inserts (Millicell-PC 3.0 μM; 30-mm diameter) were coated on the upper side with rat tail collagen. They were then set in six-well microplates containing the astrocytes and BBCECs were plated on the upper side of the filters in 2 mL of co-culture medium. This BBCEC medium was changed three times a week. Under these conditions, differentiated BBCECs formed a confluent monolayer 7 days later. Experiments were performed between 5 and 7 days after confluence was reached. The permeability coefficient for sucrose was measured to verify the endothelial permeability.
# (§3) Briefly, after removing the meninges, the brain tissue was forced gently through a 82 μm nylon sieve. Astrocytes were plated on six-well microplates at a concentration of 1.2×10^5 cells/mL in 2 mL of optimal culture medium (DMEM) supplemented with 10% heat inactivated fetal bovine serum. The medium was changed twice a week.
# (§4) Bovine brain capillary endothelial cells (BBCECs) were obtained from Cellial Technologies. The cells were cultured in the presence of DMEM medium supplemented with 10% (v/v) horse serum and 10% heat-inactivated calf serum, 2 mM of glutamine, 50 μg/mL of gentamycin, and 1 ng/mL of basic fibroblast growth factor, added every other day.
# (§5) One insert covered with BBCECs was set into a six-well microplate with 2 mL of Ringer-Hepes and was pre-incubated for 2 h at 37° C. [^125I]-aprotinin, [^125I]-p97, [^125I]-ceruloplasmin or [^125I]-transferrin (250 nM final concentration) was added to the upper side of the filter covered with cells. At various times, the insert was transferred to another well to avoid a possible reendocytosis of [^125I]-proteins by the abluminal side of the BBCECs. At the end of experiment, [^125I]-proteins were assessed in 500 μL of the lower chamber of well by TCA precipitation.
# (§6) Aprotinin, p97 and bovine holo-transferrin were iodinated with standard procedures using iodo-beads from Sigma™. Bovine holo-transferrin was diluted in 0.1M phosphate buffer, pH 6.5 (PB). P97 obtained from Synapse Technologies in neutralized citrate at pH 7.0 was dialyzed against this PB. Two iodo-beads were used for each protein. These beads were washed twice with 3 mL of PB on a Whatman™ filter and resuspended in 60 μL of PB. ^125I (1 mCi) from Amersham-Pharmacia biotech was added to the bead suspension for 5 minutes at room temperature. The iodination for each protein was initiated by the addition of 100 μg (80-100 μL).
# [2] = test system: mouse brain; experiment: In situ mouse brain perfusion (apparent volume of distribution); conditions: 10 min perfusion
# Experimental: The uptake of [^125I]-aprotinin to the luminal side of mouse brain capillaries was measured using the in situ brain perfusion method adapted in our laboratory for the study of drug uptake in the mouse brain (Dagenais et al., 2000, J. Cereb. Blood Flow Metab. 20(2):381-386). Briefly, the right common carotid of ketamine/xylazine (140/8 mg/kg i.p.) anesthetized mice was exposed and ligated at the level of the bifurcation of the common carotid, rostral to the occipital artery. The common carotid was then catheterized rostrally with polyethylene tubing (0.30 mm i.d.×0.70 mm o.d.) filled with heparin (25 U/ml) and mounted on a 26-gauge needle. The syringe containing the perfusion fluid (10 nM of [^125I]-aprotinin in Krebs/bicarbonate buffer at a pH7.4 gassed with 95% O2 and 5% CO2) was placed in an infusion pump (Harvard pump PHD 2000; Harvard Apparatus) and connected to the catheter. […]
# Aprotinin uptake was expressed as the volume of distribution (Vd) from the following equation: Vd=Q*br/C*pf where Q*br is the calculated quantity of [^125I]-aprotinin per gram of right brain hemisphere and C*pf is the labeled tracer concentration measured in the perfusate.
# The brain apparent volume of distribution was measured for [^125I]-transferrin, [^125I]-aprotinin and [^125I]-Angio-pep1. […]
# [3] = test system: endothelial cell monolayers (in vitro blood-brain barrier model); experiment: Permeability coefficient (Pe) of proteins in the in vitro blood-brain barrier model; conditions: for Ratios (permeability coefficients): Pe of Angio-pep1 divided by Pe of the named protein; for Permeability coefficient (Pe): in vitro blood-brain barrier model
# Experimental: (§7) The permeability coefficient (Pe) was calculated as:
# (§8) At the end of the experiments, amounts of the radiotracers in the basolateral compartment were measured in a liquid scintillation counter. The permeability coefficient (Pe) for sucrose was calculated as previously described (Dehouck, M. P., Jolliet-Riant, P., Brée, F., Fruchart, J. C., Cecchelli, R., Tillement, J. P., J. Neurochem. 58:1790-1797, 1992) using filters coated or non-coated with EC.
# (§9) The transport of Angio-pep1 from the apical-to-basolateral side of inserts covered with or without endothelial cell monolayers was measured. The results are expressed as the clearance of Angio-pep1 as a function of time. The slopes correspond to the permeability of the peptide through the filter alone (Psf) and to the total permeability of the endothelial cell monolayers (Pst).
# (§10) The permeability coefficients for Angio-pep1, aprotinin, leptin and transferrin were determined using the in vitro blood-brain barrier model. The permeability coefficient (Pe) was calculated as described above.
# [4] = test system: BBCEC monolayers; experiment: SDS-PAGE/autoradiography of protein integrity after transcytosis across BBCEC monolayers; format: in vitro ADME, bovine; conditions: 250 nM, SDS-PAGE, FIG. 4
# From the text: At each time point, filters were put in the next well of the 6-well plates. At the end of the experiment, aliquots were taken in each well and submitted to SDS-PAGE. Gels were then submitted to detection by autoradiography. The results, presented in FIG. 4, indicate that aprotinin integrity is not affected by its transcytosis across BBCEC monolayers.
# [5] = test system: bovine brain capillary endothelial cells (BBCECs)
# Experimental: as §1, §2, §3, §4, §5, §6
# [6] = test system: endothelial cell monolayers (in vitro blood-brain barrier model)
# Experimental: as §7, §8, §9, §10
# [7] = in vitro; conditions: bovine
# Experimental: as §7, §8, §9, §10
Compound,Transcytosis [1] [pmol/h/cm^2],Ratios Aprotinin/Protein [1],Ratios (permeability coefficients) [3],Permeability coefficient (Pe) [3] [cm/min],other results
Streptavidin: comparison protein in transcytosis experiment [reference compound],0.09,30,–,–,–
aprotinin,2.7,1,7.5,0.00016,"transcytosis capacity compared with other proteins ([1]; in vitro blood-brain barrier model): higher transcytosis capacity than transferrin, p97 or ceruloplasmin; transendothelial transport / transcytosis of aprotinin higher than that of other proteins ([1]; versus other tested proteins incl. transferrin, ceruloplasmin): 10-50 fold; brain uptake / apparent volume of distribution [2]: higher brain uptake; also recorded: higher than that of transferrin; integrity of the protein after transcytosis across BBCEC monolayers [4]: not affected"
C[C@@H](O)[C@H](N)C(=O)N[C@@H](Cc1ccccc1)C(=O)N[C@@H](Cc1ccccc1)C(=O)N[C@@H](Cc1ccc(O)cc1)C(=O)NCC(=O)NCC(=O)N[C@@H](CS)C(=O)N[C@@H](CCCNC(=N)N)C(=O)NCC(=O)N[C@@H](CCCCN)C(=O)N[C@@H](CCCNC(=N)N)C(=O)N[C@@H](CC(N)=O)C(=O)N[C@@H](CC(N)=O)C(=O)N[C@@H](Cc1ccccc1)C(=O)N[C@@H](CCCCN)C(=O)N[C@H](C(=O)N[C@@H](CCC(=O)O)C(=O)N[C@@H](CCC(=O)O)C(=O)N[C@@H](Cc1ccc(O)cc1)C(=O)O)[C@@H](C)O [Angio-pep1] (H-TFFYGGCRGKRNNFKTEEY-OH; N-terminus and C-terminus assumed),–,–,–,–,"transcytosis capacity compared with other proteins [5]: higher than that of other proteins including aprotinin, leptin and transferrin; Ratios (permeability coefficients) [6]: 1; Permeability coefficient (Pe) ([6]; bovine): 0.0012 cm/min; Papp A→B [7]: 20 ×10⁻⁶ cm/s"
Leptin: comparison protein for permeability coefficient [reference compound],–,–,21,5.5e-05,–
